Columns and labels:
[1] = system: CFP-TRIM14-YFP 25-residue substrate

Q: For “Recombinant VEEV nsP2-thioredoxin Protease containing residues 457-792”, which Km [1] is on record?
A: Its Km is 21 µM.

Q: And the Vmax [1]?
A: The Vmax was 0.056 U/mg.

Q: And the “cleavage of CFP-YFP substrate” value [1]?
A: The value was “VEEV nsP2 cysteine protease”.

Q: What about the Km (CFP-V12-YFP) of the same substance?
A: The Km was 12 µM.

Q: What about the Vmax (CFP-V12-YFP) of the same substance?
A: The Vmax was 0.059 U/mg.

Q: And the “cleavage of CFP-YFP substrate” value (CFP-V12-YFP)?
A: The value was “VEEV nsP2 cysteine protease”.

Reference: US20210389324
